Test results from patent publication US11141462B2, “Method for the treatment or prevention of osteoarthritis” (Chondropeptix B.V., priority 2016, dated 2021).

Legend:
[1] = system: Osteoarthritis chondrocytes; experiment: BMP-7 rescue of OA-associated chondrocyte phenotype (FIG. 1); format: cell-based
Method: FIG. 1: BMP-7 rescues OA-associated chondrocyte phenotype. Osteoarthritis chondrocytes display a typical phenotype that is characterized by decreased expression of SOX9, COL2A1 and BAPX1/NKX3.2 and an increased expression of COX-2 and IL-6 mRNAs (see left panel).
Functional ALP enzyme activity in cell lysates and PGE2 secretion in the culture medium was also normalized upon BMP-7 treatment of OA chondrocytes (right panel).
Expression of indicated mRNAs was determined by RT-qPCR, relatively to control conditions (normalized for 28S rRNA expression). In graphs, error bars represent mean±SEM, statistical differences were calculated as compared to healthy condition. *=p<0.05.

[2] = system: Isolated chondrocytes from OA patients; experiment: Treatment of isolated chondrocytes from OA patients, gene expression by qRT-PCR; format: cell-based, human; conditions: 1 nM, 24 h; qRT-PCR normalized for 28S rRNA; n=6
Method: Isolated chondrocytes from OA patients (n=6) were treated with BMP-7 (1 nM) or the 12-mer peptide according to SEQ ID NO: 43 (1 nM) for 24 h. Pro-chondrogenic (FIG. 8A) and hypertrophic (FIGS. 8B, 8C and 8D) gene expression was determined via qRT-PCR and normalized for 28S rRNA levels.

[3] = system: cartilage explants from OA patient's knee articular cartilage; experiment: Treatment of cartilage explants, hypertrophic gene expression by qRT-PCR; format: cell-based, human; conditions: 1 nM, 24 h
Method: 4 mm 2 cartilage explants were taken from non-lesion areas of OA patient's knee articular cartilage (n=5) and randomly assigned to different experimental treatment conditions (4 explants per treatment group). After a 24 h equilibration period the explants were treated with BMP-7 (1 nM) or the 12-mer peptide according to SEQ ID NO: 43 (10 nM) for 24 h. Hypertrophic gene expression was determined via qRT-PCR and normalized for 28S rRNA levels. After treatment with BMP-7 or the 12 mer we observed a downregulation of pro-hypertrophic genes, such as Col10a1 (FIG. 9A) and MMP13 (FIG. 9B).

Cartilage explants = experiment: Safranin-O staining of glycosaminoglycans in cartilage explants; format: cell-based, human; conditions: 1 nM, 14 days; explants from 2 patients; compared to control
Method: Cartilage explants obtained from 2 patients were cultured for 14 days in the presence of BMP-7 (1 nM) or BMP-7 mimicking peptide […] (SEQ ID NO: 13) at 10 nM. Glycosaminoglycans (GAGs), an important component of the extracellular matrix (ECM), were stained with Safranin-O (in red) and other tissues are counterstained with Fast green (in green/blue).

[4] = system: Cartilage explants from OA patient's knee cartilage; experiment: PGE2 ELISA, cartilage explants; format: cell-based, human; conditions: 1 nM, 14 days
Method: Cartilage explants of 3 mm^2 were taken from OA patient's knee cartilage (n=6) and treated with BMP-7 (1 nM), with peptide […] (SEQ ID NO: 13) at 10 nM or a scrambled irrelevant control peptide (10 nM) for 14 days. Prostaglandin E2 (PGE2) levels, a pro-hypertrophic factor, were determined via an ELISA.

[5] = system: Synovial tissue samples from OA patients; experiment: PGE2 ELISA, synovial tissue samples; format: cell-based, human; conditions: 1 nM, 24 h
Method: Synovial tissue samples from OA patients (n=6) were treated with BMP-7 (1 nM), with peptide […] (SEQ ID NO: 13) at 10 nM or a scrambled irrelevant control peptide (10 nM) for 24 h. PGE2 levels were determined via an ELISA.

[6] = system: Hoffa's fat pad tissue samples from OA patients; experiment: PGE2 ELISA, Hoffa's fat pad tissue samples; format: cell-based, human; conditions: 1 nM, 24 h
Method: Hoffa's fat pad tissue samples from OA patients (n=6) were treated with BMP-7 (1 nM) with peptide […] (SEQ ID NO: 13) at 10 nM or a scrambled irrelevant control peptide (10 nM) for 24 h. PGE2 levels were determined via an ELISA.

[7] = system: Meniscus tissue samples from OA patients; experiment: PGE2 ELISA, meniscus tissue samples; format: cell-based, human; conditions: 1 nM, 24 h
Method: Meniscus tissue samples from OA patients (n=6) were treated with BMP-7 (1 nM) with peptide peptide […] (SEQ ID NO: 13) at 10 nM or a scrambled irrelevant control peptide (10 nM) for 24 h. PGE2 levels were determined via an ELISA.

[8] = system: IL-1β-exposed chondrocytes; conditions: cited from earlier work
OA chondrocytes = conditions: cited from earlier work
OA in rats = conditions: intra-articular administration; cited from earlier work
OA patients = conditions: phase-1 clinical trial in OA patients; intra-articular injection; cited from earlier work
[9] = BMP-7 1 nM, OA chondrocytes, RT-qPCR normalized for 28S rRNA
[10] = BMP-7 treatment of OA chondrocytes

B1: BMP-7: full-length recombinant human bone morphogenetic protein-7; mature polypeptide of 139 amino acids (protein, listed as Homo sapiens)
chain: STGSKQRSQNRSKTPKNQEALRMANVAENSSSDQRQACKKHELYVSFRDLGWQDWIIAPEGYAAYYCEGECAFPLNSYMNATNHAIVQTLVHFINPETVPKPCCAPTQLNAISVLYFDDSSNVILKKYRNMVVRACGCH
BMP-7 concentration at which OA chondrocyte-phenotype suppressive action is most pronounced [1]: around 1 nM
BAPX1/NKX3.2 mRNA expression [1, 9]: normalizing expression
COL2A1 mRNA expression [1, 9]: normalizing expression
COX-2 mRNA expression [1, 9]: normalizing expression
IL-6 mRNA expression [1, 9]: normalizing expression
SOX9 mRNA expression [1, 9]: normalizing expression
effects on the chondrocyte phenotype ([1]; BMP-7 concentrations higher than 1 nM (eg 10 nM or 100 nM)): opposite and negative effects
Functional ALP enzyme activity in cell lysates [1, 10]: normalized
PGE2 secretion in the culture medium [1, 10]: normalized
COL10A1 (pro-hypertrophic) gene expression [2]: downregulation
COX-2 (pro-hypertrophic) gene expression [2]: downregulation
Col2a1 (pro-chondrogenic) gene expression [2]: upregulation
RUNX2 (pro-hypertrophic) gene expression [2]: downregulation
Col10a1 gene expression [3]: downregulation
MMP13 gene expression [3]: downregulation
Safranin-O intensity (glycosaminoglycans) (Cartilage explants): increased Safranin-O intensity
PGE2 levels [4]: reduce PGE2 levels
PGE2 levels [5]: reduce PGE2 levels
PGE2 levels [6]: reduce PGE2 levels
PGE2 levels [7]: reduce PGE2 levels
MMP13 expression [8]: decreases
proteoglycan synthesis (OA chondrocytes): stimulates
OA development and progression (OA in rats): protects against OA development and delays progression of OA
adverse events (OA patients): no serious adverse events
